Measurements reported in PMC7447783, “Cryo-EM structure of trimeric Mycobacterium smegmatis succinate dehydrogenase with a membrane-anchor SdhF” (Nature Communications, 2020).
Values belong to the molecule of their own block, whether it stands above or below them.

What was measured:
[1] = target: Mycobacterium smegmatis succinate dehydrogenase Sdh2 (trimer of SdhA-SdhB-SdhC-SdhD-SdhF protomers) (M. smegmatis) (UniProt A0QT09); experiment: cryo-EM structure; digitonin-solubilised Sdh2 complex co-purified from M. smegmatis membranes, 5 mg/mL, 20 mM MOPS pH 7.4, 100 mM NaCl, 0.1% digitonin; 2.8 Å
[2] = target: T1, Sdh2 (trimeric diheme succinate:menaquinone oxidoreductase, complex II) (Mycolicibacterium smegmatis, UniProt A0QT08+A0QT09+A0QT10); experiment: cryo-EM structure, […] Å; assay type: binding; conditions: co-purified; SdhA subunit
T1 construct: gene sdhA; SdhD with C-terminal 10xHis tag (pVV16) expressed in M. smegmatis; digitonin-solubilised, Ni-NTA and gel filtration; trimer of SdhABCDF; SdhF 3 kDa; with Succinate dehydrogenase iron-sulfur subunit; Succinate dehydrogenase membrane-anchor subunit SdhF

[3] = target: the molecule itself; experiment: cryo-EM structure; digitonin-solubilised Sdh2 complex co-purified from M. smegmatis membranes, 5 mg/mL, 20 mM MOPS pH 7.4, 100 mM NaCl, 0.1% digitonin; 2.8 Å

stoichiometry N [1]: 3
Molecule: Mycobacterium smegmatis succinate dehydrogenase Sdh2 (trimer of SdhA-SdhB-SdhC-SdhD-SdhF protomers) (from UniProt A0QT09 1-156) (complex)

Molecule: Cc1cc2nc3c(=O)[nH]c(=O)nc-3n(C[C@H](O)[C@H](O)[C@H](O)COP(=O)(O)OP(=O)(O)OC[C@H]3O[C@@H](n4cnc5c(N)ncnc54)[C@H](O)[C@@H]3O)c2cc1C [FAD]
cryo-EM structure, 2.8 Å [2]: All the prosthetic groups (FAD, [2Fe-2S], [4Fe-4S], [3Fe-4S], and two b-type heme groups)

B1: SdhD subunit of M. smegmatis Sdh2 (membrane-anchored protein) with C-terminal 10x His tag (natural protein)
chain: MSAPGAGESRLGRPAPVMEREHDRPAALDHPRAPRKPRGIPYFEKYAWLFMRFSGIALVFLALGHLFIMLMWQDGVYRIDFNYVAERWASPFWQIWDMALLWLAMIHGANGMRTIIGDYARKNVTKFWLNSLLLLATGFTLVLGSYVLVTFDANIS
notes: SdhD (Sdh2D), membrane-anchor subunit of M. smegmatis Sdh2 with three transmembrane helices (IV-VI), gene MSMEG_1671; also called Sdh2D; subunit D; source: M. smegmatis mc2 51, expressed from pVV16; digitonin extract of membranes, purified with the complex (Ni-NTA, Superdex 200); not shown: His10, C-terminal, kept
binding result [3]: binds
